Data as given in patent US20180326084A1 (Genmab, published 2018).

Experiments:
human AXL (full length) [1] = molecular target: T1, human AXL (full length) (human, UniProt P30530 26-894); assay: FMAT screening assay, HEK-293F cells transiently expressing human AXL
T1 construct: also called TH1021-AXL; TH1021-hAXL

human AXL (full length) [2] = molecular target: T1, human AXL (full length); assay: flow cytometry, HEK293T cells transiently transfected with human AXL

B1: IgG1-AXL-148 (antibody, V domains shown)
VH: EVQLLESGGGLVQPGGSLRLSCAASGFTFSSYAMTWVRQAPGKGLEWVSAISISGGSTFYADSVKGRFTISRDNSKNTLYLQMNSLRAEDTAVYYCRGYSGYVYDAFDFWGQGTMVTVSS
VL: DIQMTQSPSSLSASVGDRVTITCRASQGISNWLAWYQQKPEKAPKSLIYAASSLQSGVPSRFSGSGSGTDFTLTISSLQPEDFATYYCQQYNSYPLTFGGGTKVEIK
Which EC50 (human AXL (full length) [1]) does the source give for B1 here?
Its EC50 is 0.0036 µg/mL.

And the “Maximal binding (Arbitrary units)” value (human AXL (full length) [1])?
Its value is 3500 arbitrary units.

B2: IgG1-AXL-726 (antibody, V domains shown)
VH: QVQLQQWGAGLLKPSETLSLTCAIDGGSFSGYYWSWIRQPPGKGLEWIGEISHSGRTNYNPSLKSRVTISIDTSKNQFSLKLSSVAAADTAVYYCARFITMIRGAIITHFDYWGQGALVTVSS
VL: DIQMTQSPSSLSASVGDRVTITCRASQGISSWLAWYQQKPEKAPKSLIYAASSLQSGVPSRFSGSGSGTDFTLTISSLQPEDFATYYCQQYHSYPYTFGQGTKLEIK
For B2, which “EC50 (read off the curve)” value (human AXL (full length) [2]) is on record?
Its value is roughly 0.09 µg/mL.

What about the EC50 (human AXL (full length) [1]) of the same binder?
Its EC50 is 0.0471 µg/mL.

And the “Maximal binding (Arbitrary units)” value (human AXL (full length) [1])?
The value was 3150 arbitrary units.

B3: IgG1-AXL-183 (antibody, V domains shown)
VH: QVQLQQWGAGLLKPSETLSLTCAVYGGSFSGYYWSWIRQPPGKGLEWIGEINQSGSTNYNPSLKSRVTISVDTSKNQFSLKLSSVTAADTSVYYCASGNWDHFFDYWGQGTLVTVSS
VL: DIQMTQSPSSVSASVGDRVTITCRASQGISSWLAWYQHKPGKAPKLLIYATSSLQSGVTSRFSGSGSGTDFTLTISSLQPEDFATYYCQQAKSFPWTFGQGTKVEIK
B3 was tested. Which “EC50 (read off the curve)” value (human AXL (full length) [2]) did it give?
Its value is roughly 0.1 µg/mL.
